Measured values from patent US20240132563A1 (BRIGHT PEAK THERAPEUTICS, published 2024).
Each block holds one binder with its values, some of them ahead of it. Positions of bridges follow the written chain, without caps; N, C: chain ends. Non-standard residues stand in square brackets, D forms with d. Chains are numbered I, II in the order given. Ygp = tyrosine with amino-capped PEG8; Yn3 = tyrosine with azide-capped PEG9; hSer = N[C@@H](CCO)C(=O)O; Nle = CCCC[C@H](N)C(=O)O

What was measured:
[1] = biological target: T1, IL-18R on HEK-Blue IL18R reporter cells (UniProt Q13478 19-541; O95256 20-599, limits assumed); experiment: cell-based or functional assay
T1 sequence (looked up) 1: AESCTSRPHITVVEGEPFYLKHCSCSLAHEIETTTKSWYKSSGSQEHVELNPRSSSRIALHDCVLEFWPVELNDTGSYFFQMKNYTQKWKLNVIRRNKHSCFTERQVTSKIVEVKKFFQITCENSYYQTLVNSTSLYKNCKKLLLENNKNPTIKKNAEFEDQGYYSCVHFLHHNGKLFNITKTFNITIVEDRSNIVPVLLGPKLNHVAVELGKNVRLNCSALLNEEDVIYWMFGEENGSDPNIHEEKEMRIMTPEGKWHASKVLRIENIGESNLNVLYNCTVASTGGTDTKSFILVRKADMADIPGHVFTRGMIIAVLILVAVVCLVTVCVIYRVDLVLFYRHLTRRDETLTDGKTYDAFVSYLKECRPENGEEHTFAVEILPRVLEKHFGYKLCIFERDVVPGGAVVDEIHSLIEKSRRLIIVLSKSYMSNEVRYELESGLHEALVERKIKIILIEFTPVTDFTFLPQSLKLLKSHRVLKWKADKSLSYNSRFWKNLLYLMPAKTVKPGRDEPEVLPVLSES
T1 sequence (looked up) 2: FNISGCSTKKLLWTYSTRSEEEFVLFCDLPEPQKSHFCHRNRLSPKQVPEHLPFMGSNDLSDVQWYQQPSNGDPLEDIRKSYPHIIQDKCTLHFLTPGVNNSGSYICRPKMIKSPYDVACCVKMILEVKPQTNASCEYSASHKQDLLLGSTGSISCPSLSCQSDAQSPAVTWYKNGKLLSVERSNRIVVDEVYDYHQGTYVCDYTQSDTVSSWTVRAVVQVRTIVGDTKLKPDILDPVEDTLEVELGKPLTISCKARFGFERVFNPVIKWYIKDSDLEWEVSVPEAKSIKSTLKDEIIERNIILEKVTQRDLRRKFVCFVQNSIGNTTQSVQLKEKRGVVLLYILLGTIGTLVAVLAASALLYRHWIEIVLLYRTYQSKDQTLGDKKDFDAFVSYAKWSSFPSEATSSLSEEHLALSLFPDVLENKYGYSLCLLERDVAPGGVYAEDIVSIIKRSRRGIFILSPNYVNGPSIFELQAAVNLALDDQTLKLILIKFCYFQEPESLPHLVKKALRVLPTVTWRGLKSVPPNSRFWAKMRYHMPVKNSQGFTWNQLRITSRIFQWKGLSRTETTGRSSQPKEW

[2] = biological target: T2, IL-2Rβγ on HEK-Blue IL2Rβγ reporter cells (UniProt P14784 27-551; P31785 23-369); experiment: cell-based or functional assay
T2 sequence (looked up) 1: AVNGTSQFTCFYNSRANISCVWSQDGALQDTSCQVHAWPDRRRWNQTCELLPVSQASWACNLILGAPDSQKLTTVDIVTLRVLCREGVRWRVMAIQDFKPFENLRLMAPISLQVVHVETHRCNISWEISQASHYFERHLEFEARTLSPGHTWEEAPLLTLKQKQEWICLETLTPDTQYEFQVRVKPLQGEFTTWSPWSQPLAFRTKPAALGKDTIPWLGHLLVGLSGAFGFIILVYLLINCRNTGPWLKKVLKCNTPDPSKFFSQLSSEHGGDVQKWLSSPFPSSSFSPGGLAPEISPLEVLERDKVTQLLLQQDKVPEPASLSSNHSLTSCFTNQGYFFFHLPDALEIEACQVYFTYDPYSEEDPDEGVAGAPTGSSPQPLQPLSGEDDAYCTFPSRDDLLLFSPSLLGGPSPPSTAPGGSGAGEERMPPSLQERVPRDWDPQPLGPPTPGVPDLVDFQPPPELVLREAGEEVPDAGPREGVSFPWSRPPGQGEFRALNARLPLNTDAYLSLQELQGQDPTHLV
T2 sequence (looked up) 2: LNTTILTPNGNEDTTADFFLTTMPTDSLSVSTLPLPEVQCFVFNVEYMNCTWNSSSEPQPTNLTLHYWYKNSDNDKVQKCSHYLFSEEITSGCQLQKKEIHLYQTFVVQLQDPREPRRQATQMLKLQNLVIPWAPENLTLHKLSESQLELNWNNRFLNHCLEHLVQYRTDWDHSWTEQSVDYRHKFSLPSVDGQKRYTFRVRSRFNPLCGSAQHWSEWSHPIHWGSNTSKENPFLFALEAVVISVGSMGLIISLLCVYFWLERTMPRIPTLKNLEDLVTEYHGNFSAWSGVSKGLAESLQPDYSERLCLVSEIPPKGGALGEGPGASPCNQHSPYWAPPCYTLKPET

[3] = biological target: T3, CD218a (IL-18 receptor alpha subunit), avi-tagged (UniProt Q13478 19-329, limits assumed); experiment: BLI; ligand CD218a (avi)
T3 construct: BLI ligand printed as 'CD218a (avi)'; also called CD218a (avi); IL-18Rα
T3 sequence (looked up): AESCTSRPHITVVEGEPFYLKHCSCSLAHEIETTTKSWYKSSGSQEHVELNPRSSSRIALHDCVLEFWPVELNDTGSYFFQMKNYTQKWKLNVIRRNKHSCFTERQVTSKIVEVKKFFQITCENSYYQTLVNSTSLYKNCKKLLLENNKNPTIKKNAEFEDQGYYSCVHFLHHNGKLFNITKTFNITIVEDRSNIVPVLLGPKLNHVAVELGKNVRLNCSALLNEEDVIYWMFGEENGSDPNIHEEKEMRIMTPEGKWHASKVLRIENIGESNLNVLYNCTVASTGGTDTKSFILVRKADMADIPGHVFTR

[4] = biological target: T4, IL-2Rβ (CD122), avi-tagged (UniProt P14784 27-239, limits assumed); experiment: BLI; ligand CD122 (avi)
T4 construct: BLI ligand printed as 'CD122 (avi)'; also called IL-2 receptor beta subunit
T4 sequence (looked up): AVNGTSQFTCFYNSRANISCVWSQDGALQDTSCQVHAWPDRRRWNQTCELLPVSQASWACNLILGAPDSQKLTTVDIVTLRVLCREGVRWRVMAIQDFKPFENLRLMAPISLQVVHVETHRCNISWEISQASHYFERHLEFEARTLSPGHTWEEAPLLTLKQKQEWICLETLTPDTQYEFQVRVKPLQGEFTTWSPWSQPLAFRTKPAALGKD

EC50, HEK-Blue IL18R reporter assay [1]: 0.1 pM
EC50, HEK-Blue IL2Rβγ reporter assay [2]: 7 pM
Kd [3]: 25 nM
koff [3]: 0.0405 s⁻¹
kon [3]: 1.62e+06 M⁻¹ s⁻¹
Kd [4]: 151 nM
koff [4]: 0.0842 s⁻¹
kon [4]: 559000 M⁻¹ s⁻¹
B1: Bifunctional cytokine Composition 3 (IL-18 SEQ ID NO: 30, linker 006, IL-2 SEQ ID NO: 300) (other)
chain 1: YFGKLKSKLSIIRNLNDQVLFIDQGNRPLFEDMTDSDARDNAPRTIFIISMYADSQPRGMAVAISVKCEKISTLSAENKIISFKEMNPPDNIKDTKSDIIFFQRSVPGHDNKMQFESSSYEGYFLAAEKERDLFKLILKKEDELGDRSIMFTVQNED
chain 2: APTSSSTKKTQLQLEHLLLDLQ[Nle]ILNGINNYKNPKLTR[Nle]L[hSer][Yn3]KF[Ygp][Nle]PKKATELKHLQCLEEELKPLEEVL[hSer]LAQSKNFHLRPRDLISNINVIVLELKGSETTF[hSer]CEYADETATIVEFLNRWITFSQSIISTLT
modifications: linker I:68-II:42 via linker 006 (SulfoDBCO-PEG24-Maleimide) (inferred); ends not checked
notes: Two cytokines joined by a chemical (non-peptide) linker

EC50, HEK-Blue IL2Rβγ reporter assay [2]: 4 pM
Kd [4]: 206 nM
koff [4]: 0.102 s⁻¹
kon [4]: 493000 M⁻¹ s⁻¹
B2: IL-2 polypeptide of SEQ ID NO: 300 (ligand)
chain: APTSSSTKKTQLQLEHLLLDLQ[Nle]ILNGINNYKNPKLTR[Nle]L[hSer][Yn3]KF[Ygp][Nle]PKKATELKHLQCLEEELKPLEEVL[hSer]LAQSKNFHLRPRDLISNINVIVLELKGSETTF[hSer]CEYADETATIVEFLNRWITFSQSIISTLT
modifications: ends and bridges not checked
notes: Synthetic modified IL-2

EC50, HEK-Blue IL18R reporter assay [1]: 0.067 pM
Kd [3]: 26.1 nM
koff [3]: 0.0567 s⁻¹
kon [3]: 2.17e+06 M⁻¹ s⁻¹
B3: IL-18 polypeptide of SEQ ID NO: 30 (E6K, V11I, C38A, K53A, T63A, C76A, C127A) (ligand)
chain: YFGKLKSKLSIIRNLNDQVLFIDQGNRPLFEDMTDSDARDNAPRTIFIISMYADSQPRGMAVAISVKCEKISTLSAENKIISFKEMNPPDNIKDTKSDIIFFQRSVPGHDNKMQFESSSYEGYFLAAEKERDLFKLILKKEDELGDRSIMFTVQNED
notes: also called C086

EC50, HEK-Blue IL18R reporter assay [1]: 1.48 pM
EC50, HEK-Blue IL2Rβγ reporter assay [2]: 50 pM
Kd [3]: 66.4 nM
koff [3]: 0.0708 s⁻¹
kon [3]: 1.07e+06 M⁻¹ s⁻¹
Kd [4]: 148 nM
koff [4]: 0.0863 s⁻¹
kon [4]: 585000 M⁻¹ s⁻¹
B4: Bifunctional cytokine Composition 4 (IL-18 SEQ ID NO: 30, linker 004, IL-2 SEQ ID NO: 300) (other)
chain 1: YFGKLKSKLSIIRNLNDQVLFIDQGNRPLFEDMTDSDARDNAPRTIFIISMYADSQPRGMAVAISVKCEKISTLSAENKIISFKEMNPPDNIKDTKSDIIFFQRSVPGHDNKMQFESSSYEGYFLAAEKERDLFKLILKKEDELGDRSIMFTVQNED
chain 2: APTSSSTKKTQLQLEHLLLDLQ[Nle]ILNGINNYKNPKLTR[Nle]L[hSer][Yn3]KF[Ygp][Nle]PKKATELKHLQCLEEELKPLEEVL[hSer]LAQSKNFHLRPRDLISNINVIVLELKGSETTF[hSer]CEYADETATIVEFLNRWITFSQSIISTLT
modifications: linker I:68-II:42 via linker 004 (SulfoDBCO-Maleimide) (inferred); ends not checked
notes: as for B1
